Experimental data from paper PMC10572602, “Molecular Mechanism of STIL Coiled-Coil Domain Oligomerization” (International Journal of Molecular Sciences, 2023).
No end group written: not given here.

B1: STIL CCD_(718–749) Q729L (peptide)
peptide: LSPDAYRFLTELDRQLRLLQAQIQRLLEAQSL-NH2
notes: STIL coiled-coil domain, residues 718-749, with Q729L; also called STIL CCD Q729L; source: synthetic peptide (Fmoc-SPPS on rink amide, RP-HPLC purified)
B2: STIL CCD_(718–749) A722L Q729L (peptide)
peptide: LSPDLYRFLTELDRQLRLLQAQIQRLLEAQSL-NH2
notes: STIL coiled-coil domain, residues 718-749, with A722L and Q729L; also called double mutant; source: synthetic peptide (Fmoc-SPPS on rink amide, RP-HPLC purified)
B3: STIL CCD_(718–749) A722L (peptide)
peptide: LSPDLYRFLTEQDRQLRLLQAQIQRLLEAQSL-NH2
notes: STIL coiled-coil domain, residues 718-749, with A722L; source: synthetic peptide (Fmoc-SPPS on rink amide, RP-HPLC purified)

Experiments:
[1] = target: the molecule itself; experiment: AUC; sedimentation velocity, 10 µM peptide, c(s) distribution; 20 °C, 25 mM sodium phosphate pH 6.8, ionic strength 154 mM (NaCl)
[2] = target: the molecule itself; experiment: AUC; sedimentation velocity, 100 µM peptide, c(s) distribution; 20 °C, sodium phosphate pH 6.8 with NaCl
[3] = target: the molecule itself; experiment: AUC; sedimentation equilibrium, starting concentrations 5, 10 and 20 µM, unlabelled peptide, no DMSO; 20 °C, sodium phosphate pH 6.8 with NaCl; fitted to a single ideal species (N) and, for the WT, to a dimer-tetramer model (apparent KD: tetramer to dimers)

Protein	stoichiometry N [1]	stoichiometry N [2]	stoichiometry N [3]
B1	3.56	4	3.47 ± 0.05
B2	4.22	4	3.24 ± 0.03
B3	3.92	4	3.51 ± 0.02
